# Measurements reported in US20100169992A1 (U3 PHARMA, published 2010).
# B1: anti-FGFR4 antibody 9A5 (antibody, V domains shown)
# VH: QVQLRESGPGLVQPSQTLSLTCTVSGFSLTFYHVSWVRQPPGKGLEWMGVIWTGGSTTYNSLLKSRLTISRDTSKSQVFLKMNSLQTEDTATYYCARGGGDRGYFAFWGPGTMVTVSS
# VL: NTVMTQSPTSMFTSVGDRVTMSCKASQNVGINVGWYQQKTGQSPKRLIYWASNRDTGVPDRFTGSGSGTDFTLTISNMQAEDPAIYYCLQHNSYPWTFGGGTKLELKR
# notes: Rat monoclonal antibody from a hybridoma
# B2: anti-FGFR4 antibody 10F10 (antibody, V domains shown)
# VH: EVQLKESGPGLVQPSQTLSLTCTVSGFSLTDYSVHWVRQPPGKGLEWMGVVWSSGSTAYNSALKSRLRITRDTSKSQAFLKMNSLQTEDTAIYYCTRPRYSSWFVYWGQGTLVTVSS
# VL: DTVLTQSPALAVSLGQRVTISCRASKSVSTFIHWYQQKSGQQPKLLIYSASNTESGPSRFSGSGSGTDFTLTIDPVEADDIANYYCQQSNELPWTFGGGTKLELKR
# notes: Rat monoclonal antibody from a hybridoma (rats immunised with FGFR4-ECD-GST)
# Biological target: T1, FGFR4 expressed on cells (L6-FGFR4 myoblasts; ZR-75-1 breast cancer cells) (UniProt P22455 22-802, limits assumed)
# T1 construct: whole, on cells; also called L6-FGFR4 cells; FGFR4-transfected L6 myoblasts
# Experiment: FACS Scatchard on L6-FGFR4 cells, anti-rat-PE detection
# Experimental: L6-FGFR4 cells were harvested by incubation with 10 mM EDTA in PBS and resuspended at 6 million cells per ml in FACS buffer (PBS pH 7.4, 3% FCS, 0.1% NaN₃). In a round-bottom microtiter plate, 100 μl of cell suspension were added to 100 μl of antibody solution containing antibodies 10F10 or 9A5 at concentrations between 31.25 and 0.01 μg/ml in FACS buffer. Antibody binding was allowed to proceed for 2 hours ice. Then, cells were washed twice with 250 μl FACS buffer per well, and resuspended in 200 μl of secondary antibody (anti-rat-PE; Jackson), diluted 1:50 in FACS buffer. After 45 minutes of incubation, cells were again washed twice in FACS buffer, then resuspended in […] of PBS for FACS analysis. Analysis was carried out on a Beckman-Coulter FACS. To determine the apparent affinity constant KDapp, mean fluorescence values were plotted against the ratio of mean fluorescence and the corresponding antibody contration ([M]). The calculated KDapp resulted from the inverse slope of the straight line (FIG. 2).
# T1 sequence (P22455 22-802 limits assumed): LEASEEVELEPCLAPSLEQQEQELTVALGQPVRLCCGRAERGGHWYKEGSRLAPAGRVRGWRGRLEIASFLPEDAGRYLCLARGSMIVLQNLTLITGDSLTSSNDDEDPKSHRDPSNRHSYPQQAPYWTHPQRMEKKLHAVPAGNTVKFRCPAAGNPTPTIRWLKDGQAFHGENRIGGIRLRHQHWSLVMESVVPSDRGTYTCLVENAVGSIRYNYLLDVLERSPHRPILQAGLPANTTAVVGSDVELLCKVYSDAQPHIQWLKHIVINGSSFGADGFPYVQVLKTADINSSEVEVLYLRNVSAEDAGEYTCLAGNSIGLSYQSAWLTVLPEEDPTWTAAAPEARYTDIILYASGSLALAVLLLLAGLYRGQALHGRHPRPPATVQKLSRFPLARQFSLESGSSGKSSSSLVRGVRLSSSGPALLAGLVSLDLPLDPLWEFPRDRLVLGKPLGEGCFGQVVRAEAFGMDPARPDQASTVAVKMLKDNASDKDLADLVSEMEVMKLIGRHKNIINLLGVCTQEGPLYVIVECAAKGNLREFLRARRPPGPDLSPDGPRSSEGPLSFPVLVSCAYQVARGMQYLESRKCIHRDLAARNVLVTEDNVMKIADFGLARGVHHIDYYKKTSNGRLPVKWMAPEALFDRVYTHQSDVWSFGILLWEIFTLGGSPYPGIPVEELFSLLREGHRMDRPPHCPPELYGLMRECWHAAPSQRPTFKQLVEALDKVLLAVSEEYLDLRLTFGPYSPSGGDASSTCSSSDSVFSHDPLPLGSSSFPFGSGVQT
row,Binder,binding result
1,B1,binds
2,B2,binds
